Test results: patent US20230250164A1 (AB2 BIO, published 2023)
Substitutions are numbered along the chain they refer to.

B1: Antibody 107C6 (antibody, V domains shown)
VH: QIQLVQSGPELKKPGETVKLSCRASGYTFTNYGMNWVKQAPGKGLKWMGWINTYSGVPTYADDFKGQFAFSLETSAATAFLQINNLKDEDTATYFCAREGYSTTRSMDYWGQGTSVTVSS
VL: DIVMSQSPSSLAVSAGEKVTMSCKSSQSLLDSRTRKNYLVWYQQKPGQSPKLLIYWASTRGSGVPDRFTGSGSGTDFTLTISSVQAEDLAVYYCKQSYNLRTFGGGTKLEIK
notes: Mouse hybridoma monoclonal antibody; also called clone #107C6
B2: monoclonal anti-IL-18 antibody clone 131H1 (antibody)
chain 1: QVQLKQSGPGLVQPSQSLSITCTVSGFSLTSYGVHWVRQSPGKGLEWLGVIWSGGSTDYNAAFISRLSISKDNSKSQVFFKMNSLQADDTAIYYCARSYDYDGRGYFDYWGQGTTLTVSS
chain 2: DIQMTQSPASLSASVGETVTITCRASENVYRYLAWYQQRQGKSPQLLVYSAKTLAEGVPSRFSGSGSGTQFSLKINTLQPEDFGTYYCQHHYNTPLTFGAGTKLELK
chain 3: B1 VL with L30F, D31N, R33K, V40A, Y42F, K51E, G61K, R101W
B3: Antibody 108F8 (antibody, V domains shown)
VH: B1 VH with E10D, L11S
VL: B1 VL
notes: Mouse hybridoma monoclonal antibody
B4: recombinant human IL-18 Binding Protein (IL-18BP) (other)
chain: TPVSQTTTAATASVRSTKDPCPSQPPVFPAAKQCPALEVTWPEVEVPLNGTLSLSCVACSRFPNFSILYWLGNGSFIEHLPGRLWEGSTSRERGSTGTQLCKALVLEQLTPALHSTNFSCVLVDPEQVVQRHVVLAQLWAGLRATLPPTQEALPSSHSSPQQQG
notes: Biotinylated in the second Luminex screening step; also called human IL-18BP; hIL-18BP
B5: Antibody 109A6 (antibody, V domains shown)
VH: EVQLQQSGAELVKPGASVKLSCTASGFKIKDTYIHWVIQRPAQGLEWIGRIDPANGNTIYGSKFQGKATLTADTSSNTAYIHLSSLTSGDSAVYYCAGYVWFAYWGQGTLVTVSA
VL: DVVMTQVPLSLPVSLGDQASISCRSSQRLVHSNGNTYLHWFLQKPGQSPKLLIYTVSNRFSGVPDRFSGSGSGTDFTLKISRVEAEDLGVYFCSQSTLVPWTFGGGTKLEIK
notes: as for B3
B6: Antibody 131B4 (antibody, V domains shown)
VH: B5 VH with L4V, V37L, I38K, A42E, L70I, H82Q, S91T, Y95F
VL: DAVLTQTPLSLPVSLGDQASISCTSSQSLVHSNGNTYLHWYLQKPGQSPKLLIYKVSDRFSGVPDRFSGSGSGTDFTLMITRVEAEDLGVYFCSQSSLVPWTFGGGTKLEVK
notes: as for B3
B7: Antibody 132H4 (antibody, V domains shown)
VH: EVKLVESGGGLVKPGGSLKLSCAASGFTFSNYAMSWVRQNPAKRLEWVATISSGGANIYYPDSVKGRFIISRDNARNTLYLQMSSLRSEDTAMYYCARGDYFNHFWFAYWGQGTLVTVSA
VL: DVLMTQTPLSLPVSLGDQASISCRSSQSIVHSNGNTYLEWYLQKPGQSPKFLIYKVSNRFSGVPDRFSGSGSGTDFTLKINRVEAEDLGIYYCFQGSHVPWTFGGGTKLEIK
notes: as for B3

What was measured:
[1] = target: T1, human interleukin-18 (IL-18), recombinant (human, UniProt Q14116 37-193); test: Luminex, IL-18 on beads, hybridoma antibody
T1 construct: Commercial recombinant human IL-18; also called human IL-18; free IL-18
T1 sequence (looked up): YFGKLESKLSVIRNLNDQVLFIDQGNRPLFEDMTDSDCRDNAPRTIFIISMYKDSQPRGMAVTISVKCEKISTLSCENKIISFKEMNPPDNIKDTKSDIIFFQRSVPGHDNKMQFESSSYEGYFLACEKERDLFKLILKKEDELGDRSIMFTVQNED
Procedure: (§1) Mice were vaccinated aginst human interleukin-18 using a technology allowing immunization with properly folded proteins. […] Following immunization, B cells were isolated from spleen and hybridized following standard hybridoma technology. […] The screening was performed in 3 sequential and selective steps: […]

[2] = target: T1, human interleukin-18 (IL-18), …; test: Luminex competition, antibody pre-bound to IL-18 beads, biotinylated IL-18BP as competitor is detected
[3] = target: T2, IL-18/IL-18BP complex (human, UniProt Q14116 37-193); test: Luminex, beads linked to IL-18BP then complexed to IL-18, antibody binding
T2 construct: In the third screening step: Luminex beads linked to IL-18BP and then complexed to IL-18; also called IL-18 previously complexed to IL-18BP; complex IL-18/IL-18BP
T2 sequence 1: T1 sequence (looked up)
T2 sequence 2: B4 chain
Procedure: as §1

[4] = target: T2, IL-18/IL-18BP complex; test: Luminex, third screening step against first
Procedure: as §1

[5] = target: T1, human interleukin-18 (IL-18), …; test: free IL-18 ELISA with IL-18BP capture; 400 pg/mL IL-18 in PBS 5% BSA spiked with IL-18BP
Procedure: After that, 20 μl sample volume containing biological fluid or standard is dispensed per microplate well. Non-diluted or diluted biological fluid can be but is not restricted to serum, urine, tear, saliva, bile, sweat, exhalation or expiration, sputum, bronchoalveolar fluid, sebum, cellular, gland, mucosa or tissue secretion, biopsy, homogenized tissue. […] The plates are sealed and then incubated under gentle shaking for free IL-18 capture. […] The microplate wells are the washed extensively with the appropriate buffer and then, 100 μl buffer developing mixture is added to each well. The developing mixture contains a streptavidin-conjugated enzyme such as peroxidase or alkaline phosphatase. […] The resulting reactions are then monitored with a microplate reader at an appropriate nanometer wavelength for absorbance or fluorescence of the produced reagent.

[6] = target: T1, human interleukin-18 (IL-18), …; test: free IL-18 ELISA with plate-bound IL-18BP as capture; 400 pg/ml IL-18 in PBS with 5% BSA spiked with soluble IL-18BP at 0 to 10000 pg/ml; soluble IL-18BP competes with the capture IL-18BP
Text: Microplates can also be dried in a stabilizing solution allowing storage at room temperature and then be reconstituted by hydration when needed for assay.

Row | Binder | fluorescence intensity (monoclonal antibody binding on IL-18) [1] | fluorescence intensity (IL-18BP binding on IL-18 previously complexed to monoclonal antibody) [2] | fluorescence intensity (monoclonal antibody binding on IL-18 previously complexed to IL-18BP) [3] | fold inhibition (binding on IL-18 complexed to IL-18BP against binding on IL-18) [4] | molar ratio IL-18BP/IL-18 at which free IL-18 is near background [5] | IC50 (read off the curve) [6]
1 | B1 | 26200 fluorescence intensity | 1390 fluorescence intensity | 33 fluorescence intensity | > 500 fold |  | 
2 | B2 | 24800 fluorescence intensity | 1030 fluorescence intensity | 24 fluorescence intensity | > 500 fold |  | 
3 | B3 | 25100 fluorescence intensity | 1290 fluorescence intensity | 45 fluorescence intensity | > 500 fold |  | 
4 | B4 |  |  |  |  | ~15 fold | ~2000 pg/mL
5 | B5 | 25800 fluorescence intensity | 913 fluorescence intensity | 33 fluorescence intensity | > 500 fold |  | 
6 | B6 | 24800 fluorescence intensity | 1660 fluorescence intensity | 41 fluorescence intensity | > 500 fold |  | 
7 | B7 | 23800 fluorescence intensity | 1490 fluorescence intensity | 28 fluorescence intensity | > 500 fold |  | 
